In patent US20030153520A1 (published 2003):

B1: endogenous cellubrevin (rat brain) (other, UniProt P63025 1-103, looked up)
chain: MSTGVPSGSSAATGSNRRLQQTQNQVDEVVDIMRVNVDKVLERDQKLSELDDRADALQAGASQFETSAAKLKRKYWWKNCKMWAIGISVLVIIVIIIIVWCVS
notes: also called Cb
B2: GST-Cyt-TIVAMP (other)
chain: MAILFAVVARGTTILAKHAWCGGNFLEVTEQILAKIPSENNKLTYSHGNYLFHYICQDRIVYLCITDDDFERSRAFNFLNEIKKRFQTTYGSRAQTALPYAMNSEFSSVLAAQLKHHSENKGLDKVMETQAQVDELKGIMVRNIDLVAQRGERLELLIDKTENLVDSSVTFKTTSRNLARAMCMKNLK
notes: also called full cytoplasmic domain of TI-VAMP fused to GST; not shown: glutathione S-transferase (GST) tag encoded by the pGEX4T vector (Pharmacia)

Columns and labels:
[1] = molecular target: endogenous SNAP25 (rat brain extract; PC12 cells) (rat, UniProt P60881 1-206); experiment: co-immunoprecipitation with anti-SNAP25 from Triton X-100 extract of rat brain
Description: FIG. 4A illustrates that TI-VAMP forms a complex with SNAP25 in Triton X100 extract of rat brain. Immunoprecipitation with anti-SNAP25 antibodies was performed from Triton X100 soluble extract of rat brain as described in the Materials and Methods section of example 1 and immunoprecipitated proteins were detected by western blot analysis with the indicated antibodies (synaptobrevin 2, Sb2: cellubrevin, Cb: U, unbound, B: bound to anti-SNAP25 immunobeads). The bound fraction corresponded to a 65-fold enrichment compared to unbound. The SNAP25 TI-VAMP complex seemed more abundant than the SNAP25 synaptobrevin 2 one but this may only reflect a lower expression level of TI-VAMP compared to synaptobrevin 2 in the adult brain.
Immunoprecipitation: Immunoprecipitation from rat brain was performed using a Triton X-100 soluble membrane fraction prepared as follows: two adult rat brains were homogenized, with a glass teflon homogenizer (9 strokes at 900 rpm) in 25 ml of 0.32M sucrose containing a protease inhibitor cocktail. All the steps were carried out at 4° C. After 10 min centrifugation at 800 g the supernatant was centrifuged at 184000 g for 1 hour, obtaining a cytosolic and a membrane fraction in the supernatant and the pellet, respectively. […]

6xhis-tagged SNAP25A = molecular target: T1, 6xhis-tagged SNAP25A (UniProt P60881-2 1-206); experiment: overlay assay
T1 construct: also called 6xhisSNAP25; 6xhis-SNAP25; not shown: 6xhis tag
Description: The binding of GST, GST-Cyt-TIVAMP, GST-ter-TIVAMP, or GST-CC-TIVAMP was measured by overlay over immobilized 6xhis-SNAP25 (indicated by the arrow). GST-CC-TIVAMP bound efficiently to immobilized 6xhis-SNAP25. Little binding of GST-Cyt-TIVAMP and none of GST and GST-Nter-TIVAMP were observed.
Overlay assay: The corresponding GST fusion proteins and GST alone were produced and purified as previously described, 6xhis-tagged SNAP25A (6xhisSNAP25, bacterial strain is available from G. Schiavo, ICRF, London, UK) was purified. 6xhisSNAP25 was run on SDS-PAGE and western blotted onto Immobilon-P membrane (Millipore, Bedford, Mass.). The amount of 6xhisSNAP25 corresponds to 1.25 μg/mm of membrane, 4 mm strips of the membrane were cut and incubated in 150 mM NaCl, 5% non fat dry milk. 50 mM phosphate pH7.5 buffer for 1 hour at room temperature. The strips were then incubated with 10 nM the GST-fusion proteins overnight at 4° C. in buffer B (3% BSA, 0.1%, Tween20 20 mM Tris pH: 7.5) containing 1 mM DTT. The strips were rinsed three times in buffer B at room temperature, incubated with anti-GST antibodies in butfer B for 1 hour, rinsed in buffer B three times and incubated with alkaline phosphatase-coupled sheep anti-mouse antibodies. The detection as carried out simultaneously for all the strips, for the same time, using a kit from Promega (Madison, Wis.).

Chain of endogenous SNAP25 (rat brain extract; PC12 cells) (P60881 whole entry): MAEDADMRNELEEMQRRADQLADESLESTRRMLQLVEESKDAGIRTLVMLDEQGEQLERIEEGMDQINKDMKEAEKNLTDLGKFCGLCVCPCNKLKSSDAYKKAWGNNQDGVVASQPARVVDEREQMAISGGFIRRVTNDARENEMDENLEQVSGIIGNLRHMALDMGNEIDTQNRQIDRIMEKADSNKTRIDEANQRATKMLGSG
T1 sequence (P60881 other isoform, or with tags, fused parts or gaps limits assumed): as the sequence (P60881 whole entry) above, with E58D, I60V, D65N, Q66H, K69Q, T79K, F84C, C88F, V89I counted along it

Binder	binding result [1]	binding result (6xhis-tagged SNAP25A)
B1	no binding	–
B2	–	binds
